Measurements published in PMC4381339, “Modeling autosomal recessive cutis laxa type 1C in mice reveals distinct functions for Ltbp-4 isoforms” (Disease Models & Mechanisms, 2015).

T1: recombinant full-length fibulin-5 (mouse, UniProt Q9WVH9 24-448)
T1 construct: Fibulin-5, mouse, full length after the signal peptide; also called rfibulin-5; source: HEK 293 EBNA cells, stably expressed, purified from conditioned medium (streptactin-Sepharose)
T1 sequence (looked up): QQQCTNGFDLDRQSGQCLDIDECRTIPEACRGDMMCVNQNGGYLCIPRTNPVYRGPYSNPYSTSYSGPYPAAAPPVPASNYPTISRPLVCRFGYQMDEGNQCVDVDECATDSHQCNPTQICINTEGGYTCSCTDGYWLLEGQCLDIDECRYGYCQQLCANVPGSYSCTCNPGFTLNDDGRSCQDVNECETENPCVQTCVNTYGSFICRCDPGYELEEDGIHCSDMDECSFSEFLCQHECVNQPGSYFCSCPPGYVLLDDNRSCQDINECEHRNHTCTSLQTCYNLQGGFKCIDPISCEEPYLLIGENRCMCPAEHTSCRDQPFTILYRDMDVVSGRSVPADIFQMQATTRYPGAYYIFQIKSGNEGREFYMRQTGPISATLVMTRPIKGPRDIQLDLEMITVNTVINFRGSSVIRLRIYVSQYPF

T2: recombinant full-length fibulin-4 (mouse, UniProt Q9WVJ9 28-443)
T2 construct: Fibulin-4, mouse, full length after the signal peptide; also called rfibulin-4; source: HEK 293 EBNA cells, stably expressed, purified from conditioned medium (streptactin-Sepharose)
T2 sequence (looked up): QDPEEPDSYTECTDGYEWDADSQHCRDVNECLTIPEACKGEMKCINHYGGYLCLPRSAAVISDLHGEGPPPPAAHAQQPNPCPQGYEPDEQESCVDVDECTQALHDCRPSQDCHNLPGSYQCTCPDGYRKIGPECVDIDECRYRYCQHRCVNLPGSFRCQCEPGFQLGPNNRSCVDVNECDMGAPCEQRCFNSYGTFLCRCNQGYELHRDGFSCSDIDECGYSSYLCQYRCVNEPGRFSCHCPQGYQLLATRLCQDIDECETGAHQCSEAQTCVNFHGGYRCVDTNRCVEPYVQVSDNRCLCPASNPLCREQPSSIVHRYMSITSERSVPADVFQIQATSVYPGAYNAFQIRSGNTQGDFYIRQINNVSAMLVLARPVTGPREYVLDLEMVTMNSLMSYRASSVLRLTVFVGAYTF


Tests used:
[1] = target: rfibulin-4 and rfibulin-5 (mouse); assay: SPR; Ltbp-4L-2xStrep and Ltbp-4S-2xStrep after PNGase F digest under non-denaturing conditions, flown over rfibulin-4 and rfibulin-5 immobilized on a Biacore chip; response compared before and after deglycosylation; n=2
[2] = target: T1, recombinant full-length fibulin-5; assay: SPR; BIAcore2000; 570 RUs of rfibulin-4 or 390 RUs of rfibulin-5 amine-coupled to carboxymethyldextran hydrogel 500M chips; Ltbp-4L-2xStrep (0-320 nM) or Ltbp-4S-2xStrep (0-80 nM) flown over as analyte; 1:1 Langmuir fits, kobs plotted against concentration; apparent Kd = koff/kon; settings: both partners purified
[3] = target: T2, recombinant full-length fibulin-4; assay: as above; settings: both partners purified

percent increase of the SPR signal after deglycosylation (against Ltbp-4S-2xStrep before deglycosylation) [1] [%]	Kd [2] [nM]	koff [2] [s⁻¹]	kon [2] [M⁻¹ s⁻¹]	Kd [3] [nM]	koff [3] [s⁻¹]	kon [3] [M⁻¹ s⁻¹]	Molecule
15 to 20	–	–	–	–	–	–	Ltbp-4S-2xStrep after deglycosylation with PNGase F under non-denaturing conditions (domain or fragment)
–	15.8	0.0158	1e+06	15.4	0.0108	700000	Ltbp-4S-2xStrep (N-terminal fragment of mouse Ltbp-4S) (domain or fragment, UniProt Q8K4G1-2 27-211, looked up, N-linked glycosylation (shift after PNGase F), residue not given, the first 185 amino acids after the signal peptide (Arg27-Asp211); numbers count on: the short isoform Ltbp-4S; Cloned into a modified pCEP-Pu vector with a 3' 2xStrepII tag through NheI and XhoI; also called N-terminal Ltbp-4S; Ltbp-4S N-terminal fragment; source: HEK 293 EBNA cells, stably expressed, purified from conditioned medium (streptactin-Sepharose); not shown: 2xStrepII, C-terminal, kept) RPRERLRVRFTPAVCGLRCIHGPTGSRCTPTCAPRNATSVDSGAPGGAAPGGPGFRAFLCPLICHNGGVCVKPDRCLCPPDFAGKFCQLHSSGARPPAPAMPGLTRSVYTMPLANHRDDEHGVASMVSVHVEHPQEASVVVHQVERVSGPWEEANPEALARAEAAARAEAAAPYTVLAQSAPRED
–	2.4	0.0053	2.2e+06	3.1	0.0041	1.3e+06	Ltbp-4L-2xStrep (N-terminal fragment of mouse Ltbp-4L) (domain or fragment, UniProt Q8K4G1-1 25-277, looked up, the first 253 amino acids after the signal peptide (Ser25-Asp277); numbers count on: the long isoform Ltbp-4L; Cloned into a modified pCEP-Pu vector with a 3' 2xStrepII tag through NheI and XhoI; also called N-terminal Ltbp-4L; Ltbp-4L N-terminal fragment; source: HEK 293 EBNA cells, stably expressed, purified from conditioned medium (streptactin-Sepharose); not shown: 2xStrepII, C-terminal, kept) SGSSPSPSPSPIEKAVVPSHQAGVAACHCCLDQTPKSSRCTRASCRVRNCPPAKCTGLEGCLTPTPSVPSPSRSPVEKSQVSLNWQPLTLQEARALLRQRRPRGPWARALLKRRPPHRAPAGQARVLCPLICHNGGVCVKPDRCLCPPDFAGKFCQLHSSGARPPAPAMPGLTRSVYTMPLANHRDDEHGVASMVSVHVEHPQEASVVVHQVERVSGPWEEANPEALARAEAAARAEAAAPYTVLAQSAPRED
